Numbering of substitutions follows the chain as printed.
T1: Human Macrophage Receptor with Collagenous Structure (MARCO), full length, on cells (human, UniProt Q9UEW3 1-520)
T1 construct: the cell type is named under assay; also called huMARCO; HuMARCO
T1 sequence: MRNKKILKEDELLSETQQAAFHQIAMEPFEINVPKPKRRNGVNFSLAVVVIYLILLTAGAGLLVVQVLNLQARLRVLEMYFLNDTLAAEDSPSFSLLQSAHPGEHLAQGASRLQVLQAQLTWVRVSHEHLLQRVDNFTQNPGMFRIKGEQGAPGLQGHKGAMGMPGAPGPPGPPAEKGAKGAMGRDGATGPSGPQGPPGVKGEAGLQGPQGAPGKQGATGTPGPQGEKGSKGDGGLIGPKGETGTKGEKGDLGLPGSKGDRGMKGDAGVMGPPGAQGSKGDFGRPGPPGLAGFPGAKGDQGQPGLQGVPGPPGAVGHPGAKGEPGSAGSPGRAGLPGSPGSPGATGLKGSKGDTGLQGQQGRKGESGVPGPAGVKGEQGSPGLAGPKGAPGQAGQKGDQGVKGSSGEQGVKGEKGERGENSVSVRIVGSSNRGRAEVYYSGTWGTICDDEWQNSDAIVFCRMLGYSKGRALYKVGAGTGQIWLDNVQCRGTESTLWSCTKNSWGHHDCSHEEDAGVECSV

T2: N-terminally polyhistidine tagged human MARCO ECD (147-520), recombinant (human, UniProt Q9UEW3 147-520)
T2 construct: also called PI-RG-3000; recombinant human MARCO; not shown: N-terminal polyhistidine tag
T2 sequence: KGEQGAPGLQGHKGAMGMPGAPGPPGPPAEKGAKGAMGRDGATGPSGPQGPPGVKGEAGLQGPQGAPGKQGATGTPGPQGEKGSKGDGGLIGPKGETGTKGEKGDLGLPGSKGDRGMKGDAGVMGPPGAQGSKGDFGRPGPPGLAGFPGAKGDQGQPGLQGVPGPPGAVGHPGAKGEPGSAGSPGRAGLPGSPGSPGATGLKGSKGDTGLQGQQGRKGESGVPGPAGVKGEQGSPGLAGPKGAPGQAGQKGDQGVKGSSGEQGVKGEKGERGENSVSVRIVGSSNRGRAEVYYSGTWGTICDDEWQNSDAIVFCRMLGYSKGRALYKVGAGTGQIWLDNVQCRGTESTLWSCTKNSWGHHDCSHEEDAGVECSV

T3: Cynomolgus MARCO, full length, on cells (cynomolgus, UniProt A0A2K5X0Z2 1-519)
T3 construct: whole, on cells; also called cyno MARCO; CyMARCO
T3 sequence: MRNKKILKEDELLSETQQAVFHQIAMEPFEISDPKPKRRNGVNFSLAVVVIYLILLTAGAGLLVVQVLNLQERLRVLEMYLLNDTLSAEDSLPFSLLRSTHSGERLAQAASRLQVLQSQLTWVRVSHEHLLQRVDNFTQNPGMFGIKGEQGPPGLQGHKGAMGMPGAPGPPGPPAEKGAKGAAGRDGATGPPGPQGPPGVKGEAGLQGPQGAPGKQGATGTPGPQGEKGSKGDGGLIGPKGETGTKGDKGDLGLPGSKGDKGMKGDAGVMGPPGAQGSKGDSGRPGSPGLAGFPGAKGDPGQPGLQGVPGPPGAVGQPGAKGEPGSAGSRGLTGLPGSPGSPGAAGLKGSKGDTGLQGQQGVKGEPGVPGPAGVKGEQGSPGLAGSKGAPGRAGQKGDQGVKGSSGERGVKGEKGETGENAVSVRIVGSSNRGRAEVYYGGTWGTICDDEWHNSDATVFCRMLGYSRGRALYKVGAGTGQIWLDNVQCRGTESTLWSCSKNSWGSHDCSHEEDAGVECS

B1: PI-3015-AB (antibody, human IgG1, kappa)
heavy: not shown
light: DIQMTQSPSSLSASVGDRVTITCRASEGISNDLAWYQQKPGKAPKLLIYAASRLQSGVPSRFSGSGSGTDYTLTISSMQPEDFATYYCQQSYKYPLTFGQGTKLEIKRTVAAPSVFIFPPSDEQLKSGTASVVCLLNNFYPREAKVQWKVDNALQSGNSQESVTEQDSKDSTYSLSSTLTLSKADYEKHKVYACEVTHQGLSSPVTKSFNRGEC
B2: PI-HX-3031 (antibody)
heavy: QVQLKESGPGLVQPSQTLSLTCTVSGFSLTSYHVSWVRQPPGKGLEWMGAIWTGGSIAYNSLLKSRLSISRDTSKSQVFLKMNSLQTEDTATYYCARDLSDYYSSYTSFDYWGQGVMVTVSTAETTAPSVYPLAPGTALKSNSMVTLGCLVKGYFPEPVTVTWNSGALSSGVHTFPAVLQSGLYTLTSSVTVPSSTWSSQAVTCNVAHPASSTKVDKKIVPRECNPCGCTGSEVSSVFIFPPKTKDVLTITLTPKVTCVVVDISQNDPEVRFSWFIDDVEVHTAQTHAPEKQSNSTLRSVSELPIVHRDWLNGKTFKCKVNSGAFPAPIEKSISKPEGTPRGPQVYTMAPPKEEMTQSQVSITCMVKGFYPPDIYTEWKMNGQPQENYKNTPPTMDTDGSYFLYSKLNVKKETWQQGNTFTCSVLHEGLHNHHTEKSLSHSP
light: DIQMTQSPASLSTSLGETVSIECLASEGISNDLAWYQQKSGKSPQLLIYAASRLQDGVPSRFSGSGSGTRYSLKISGMQPEDEADYFCQQSYKYPLTFGSGTKLEIKRADAAPTVSIFPPSTEQLATGGASVVCLMNNFYPRDISVKWKIDGTERRDGVLDSVTDQDSKDSTYSMSSTLSLTKADYESHNLYTCEVVHKTSSSPVVKSFNRNEC
notes: Parental rat hybridoma, rat IgG2a
B3: PI-HX-3061 (antibody, rat IgG2a)
heavy: EVQLVESGGGLVQPGSSLKLSCVASKFTFSNYGMNWIRQAPKKGLEWIALIYYNSNNKYYADSVKGRFTISRDNSKNTLYLEMNSLRSEDTAMYYCAKSLTGGSDYFDSWGQGVMVTVSSAETTAPSVYPLAPGTALKSNSMVTLGCLVKGYFPEPVTVTWNSGALSSGVHTFPAVLQSGLYTLTSSVTVPSSTWPSQTVTCNVAHPASSTKVDKKIVPRNCGGDCKPCICTGSEVSSVFIFPPKPKDVLTITLTPKVTCVVVDISQDDPEVHFSWFVDDVEVHTAQTRPPEEQFNSTFRSVSELPILHQDWLNGRTFRCKVTSAAFPSPIEKTISKPEGRTQVPHVYTMSPTKEEMTQNEVSITCMVKGFYPPDIYVEWQMNGQPQENYKNTPPTMDTDGSYFLYSKLNVKKEKWQQGNTFTCSVLHEGLHNHHTEKSLSHSP
light: DVQMTQSPSYLAASPGESVSISCKASKSIGTFLAWYQEKPEKTNKLLIYSGSTLQSGTPSRFSGSGSGTDFTLTIRNLEPEDFAVYYCQQHDEYPFTFGSGTKLEIKRADAAPTVSIFPPSTEQLATGGASVVCLMNNFYPRDISVKWKIDGTERRDGVLDSVTDQDSKDSTYSMSSTLSLTKADYESHNLYTCEVVHKTSSSPVVKSFNRNEC
notes: Parental rat hybridoma, rat IgG2a; cross reactive with human and mouse MARCO
B4: PI-3010-AB (antibody, human IgG1, kappa)
heavy: not shown
light: DIQMTQSPASLSTSLGETVSIECLASEGISNDLAWYQQKSGKSPQLLIYAASRLQDGVPSRFSGSGSGTRYSLKISGMQPEDEADYFCQQSYKYPLTFGSGTKLEIKRTVAAPSVFIFPPSDEQLKSGTASVVCLLNNFYPREAKVQWKVDNALQSGNSQESVTEQDSKDSTYSLSSTLTLSKADYEKHKVYACEVTHQGLSSPVTKSFNRGEC
B5: PI-HX-3021 (antibody, V domains shown)
VH: QVRLVQSGTALVRPGASVRMSCTASGYSFTDYWVSWVKQSHGQSLEWIGEIYPNSGTTNFNEKFEGKATLTVDKSTSTAYMELSRLTSEDSAIYYCTGEGTFDYWGQGVMVTVSS
VL: EIVLTQSPTTMAASPGEKVTITCRPSSSLSNMHWFQQKSGTSPKPWIYDTSKLASGVPDRFSGSGSGTSYSLTISSMEAEDAATYYCLQRSSYPPTFGAGTKLELK
notes: Rat IgG2a hybridoma antibody; Not the effector dead PI-3021; also called PI-3007 (name of the recombinant form)
B6: PI-HX-3016 (antibody, rat IgG1, V domains shown)
VH: EVQLVESGGGLVKPGASLKLSCVASGFTFSDDWMNWVRQTPGKAMEWIGDIKYDGSYTNYVPSLKNRLTISRDNAKNTLYLQMTNVRSEDTATYYCTSGGVFDYWGQGVMVTVSS
VL: B5 VL with T5S, P25A, L29V, N31Y, S92G, L105V
notes: Rat IgG1 hybridoma antibody

Experiments:
[1] = target: T1, Human Macrophage Receptor with …; assay: flow cytometry, cells overexpressing human MARCO
[2] = target: T2, N-terminally polyhistidine tagged human …; assay: SPR, multi cycle kinetics, huMARCO antigen
In short: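 On a CM4 chip, anti-mouse Fc mAb was amine-coupled to a 4500 RU target and used to capture the antibodies. Their binding kinetics and affinity for N-terminally His-tagged human MARCO extracellular domain (147-520) were then measured by multi-cycle surface plasmon resonance on a Biacore T200. This was done at 25° C in 10 mM HEPES pH 7.4, 150 mM NaCl, 3 mM EDTA, 0.05% surfactant P20, with 0.625–10 nM injections, 90 s association and 600 s dissociation, and fitting in BIAevaluation 3.1.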

[3] = target: T3, Cynomolgus MARCO, full length, on cells; assay: flow cytometry, 293T CyMARCO cells
In short: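 HEK293T cells expressing human or cynomolgus MARCO were tested for antibody binding by flow cytometry. At 100,000 cells/well, Zombie NIR-stained cells received an 8-point three-fold dilution of antibody from 100 nM in D-PBS/2% FBS/2 mM EDTA for 1 hr on ice, then APC goat anti-mouse IgG for 30 min on ice. Geometric mean fluorescence intensities were analysed in FlowJo and Prism.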

Binder	EC50 [1]	Kd [2]	binding result [3]
B1	0.86 nM	–	–
B2	–	0.0913 nM	–
B3	–	0.256 nM	–
B4	0.68 nM	–	–
B5	–	–	no binding
B6	–	–	no binding
